Experiments:
[1] = system: mutant p27 Y88F, phosphorylated on Tyr-89 by recombinant Abl kinase
[2] = system: p27Kip1, recombinant, tyrosine-phosphorylated in vitro by Abl kinase (Tyr-88 phosphorylated p27)
[3] = system: p27Kip1, recombinant, unphosphorylated

Sequence of mutant p27 Y88F, phosphorylated on Tyr-89 by recombinant Abl kinase (chain, as listed by the source Y88F): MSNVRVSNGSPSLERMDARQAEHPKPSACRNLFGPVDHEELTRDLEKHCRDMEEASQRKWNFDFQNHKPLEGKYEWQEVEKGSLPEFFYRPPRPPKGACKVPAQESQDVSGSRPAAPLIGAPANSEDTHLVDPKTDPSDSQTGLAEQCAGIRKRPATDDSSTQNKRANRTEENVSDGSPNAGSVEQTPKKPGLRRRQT

CDK2/cyclin A complex, recombinant, purified from Sf9 insect cells
phosphorylation of Thr-187 of p27 in CDK2 kinase complexes (Western blot with a phospho-threonine 187 specific antibody) [1]: a mutant phosphorylated on Tyr-89 is not a good substrate for CDK2-dependent phosphorylation (FIG. 5b)
phosphorylation of Thr-187 of p27 in CDK2 kinase complexes (Western blot with a phospho-threonine 187 specific antibody) [2]: Phosphorylation of Thr-187 was indeed strongly enhanced if Tyr-88 phosphorylated p27 was incubated in CDK2 kinase complexes (FIG. 5b)
phosphorylation of p27 by CDK2 within p27/CDK2/cyclin A complexes (32P incorporation) [2]: the tyrosine phosphorylated protein was a good substrate for CDK2 phosphorylation (FIG. 5a)
phosphorylation of p27 by CDK2 within p27/CDK2/cyclin A complexes (32P incorporation) [3]: As expected, p27 was poorly phosphorylated due to the absence of free kinase

Source: patent US20080026992
